Data from patent US20240317840A1 (Novartis, published 2024).
Substitutions are numbered along the chain they refer to. Like-named read-outs stand apart in the source and are kept apart here.

B1: NOV3840 (antibody, human IgG1, lambda, V domains shown)
VH: EVQLLESGGGLVQPGGSRRLSCAASGFTFSYYGMNWVRQAPGKGLEWVSGITNSGSITYYADSVKGRFSISRDNSKNTLFLQMNSLRAEDTAVYYCAKVGVRSSSGMWDLDYWGQGTLVTVSS
VL: SYVLTQPPSVSVAPGQTARLSCGGNNIGSKSLQWYQQKPGQAPVLVVNDDSDRPSGIPERFSGSNSGNTATLTISRVEAGDEADYYCQVWDTSSDHVVFGGGTKLTVLG
notes: Full human IgG1 (lambda) expressed in CHO cells
B2: NOV3842 (antibody, human IgG1, lambda, V domains shown)
VH: B1 VH with S54V, S63T
VL: B1 VL with D50E
notes: as for B1
B3: NOV3841 (antibody, human IgG1, lambda, V domains shown)
VH: B1 VH with N53Q, S63T
VL: B1 VL with D50E
notes: as for B1
B4: NOV3837 (antibody, human IgG1, kappa, V domains shown)
VH: QVQLQESGGRLVRPGGSLRLSCAASGFIFTDYYMTWIRQAPGKGPEWIAFITSGGETTYYADSVKGRFTISRDNAKKSLFLQMYSLRADDTAVYYCVRAHFDGYQYDTRGDFTYYFDNWGLGTLVSVSS
VL: EIVMTQSPATLSVSPGERVTLSCRASQSVSSSLAWYQQKPGRAPRLLIYGASTRATGVPARFSGGGSGTDFTLTISSLQSEDFAVYYCHQYINWPPGDTFGQGTRLDIKR
notes: Full human IgG1 (kappa) expressed in CHO cells
B5: NOV3838 (antibody, human IgG1, kappa, V domains shown)
VH: B4 VH with G103L
VL: B4 VL
notes: as for B4
B6: NOV3839 (antibody, human IgG1, kappa, V domains shown)
VH: B4 VH with G103I
VL: B4 VL
notes: as for B4

How the values were obtained:
[1] = target: T1, HBsAg of HBV genotype A (AY934772) (Hepatitis B virus); test: sandwich ELISA, captured HBsAg from culture supernatant
T1 construct: captured from supernatant by horse polyclonal anti-HBsAg
Experimental: (§1) The binding of anti-HBsAg antibodies to the 4 major genotypes (A-D) of HBV were analyzed by sandwich ELISA.

[2] = target: HBsAg of HBV genotype B (AF 121245) (Hepatitis B virus); test: as above
Experimental: as §1

[3] = target: HBsAg of HBV genotype C (DQ087960) (Hepatitis B virus); test: as above
Experimental: as §1

[4] = target: HBsAg clinical mutation T126S (Hepatitis B virus); test: sandwich ELISA, mutant HBsAg from cell supernatant captured on horse polyclonal anti-HBsAg, antibody titrated, absorbance 450 nm
[5] = target: HBsAg clinical mutation D144A (Hepatitis B virus); test: as above
[6] = target: HBsAg clinical mutation M133L (Hepatitis B virus); test: as above
[7] = target: HBsAg of HBV genotype D, serotype ayw (Hepatitis B virus); test: cell-based or functional assay
[8] = target: HBsAg clinical mutation T126S (Hepatitis B virus); test: sandwich ELISA, captured mutant HBsAg from culture supernatant;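 further: Anti-HBsAg antibodies tested for binding to mutant HBsAg secreted by stably transfected cell lines, supernatant incubated 1 h on antibody-coated plates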
Experimental: (§2) The binding of anti-HBsAg antibodies to 4 well characterized vaccine and/or HBsAg clinical mutations of HBsAg (G145R, D144A, T126S, M133L) were analyzed by sandwich ELISA. […] Supernatant collected from HBsAg cell-culture derived clinical mutation stables (G145R, D144A, T126S, M133L) was allowed to bind antibody coated plates for 1 hour.

[9] = target: HBsAg clinical mutation D144A (Hepatitis B virus); test: as above
Experimental: as §2

[10] = target: HBsAg clinical mutation M133L (Hepatitis B virus); test: as above
Experimental: as §2

HBsAg AD serotype [11] = target: T2, HBsAg AD serotype (Hepatitis B virus); test: SPR Biacore T200, HBsAg particles immobilized, antibody as analyte, 1:1 fit;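 further: Anti-HBsAg antibodies assessed for binding against both major HBsAg serotypes, AY and AD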
T2 construct: also called HBsAg serotype AD
Experimental: (§3) Binding affinity interaction (KD) of the anti-HBsAg antibodies with the two major serotypes of HBsAg, AY and AD, was determined utilizing surface plasma resonance (SPR) technology.

HBsAg AY serotype [12] = target: T3, HBsAg AY serotype (Hepatitis B virus); test: as above
T3 construct: also called HBsAg serotype AY
Experimental: as §3

HBsAg AD serotype [13] = target: T2, HBsAg AD serotype; test: SPR epitope binning; competitor (1st, saturating Ab): HBC34
Experimental: (§4) Epitope binning of anti-HBsAg antibodies with the two major serotypes of HBsAg, AY and AD, was performed utilizing surface plasmon resonance (SPR) technology. […] Each pair of antibodies was tested for blocking one another's binding to their epitope on the antigen by subsequently applying one antibody as first (saturating) followed by the other as second (competing) antibody and vice versa. Saturating antibodies were applied at 500 nM for 120s. Competing antibodies utilized the same conditions but were supplemented with the first antibody at 500 nM to maintain saturation. Binding signals were corrected by subtracting the reference cell signal. Specific binding of the competing antibody in presence of the saturating antibody was calculated by subtracting a saturating antibody plus buffer reference signal. All signals were normalized to 100 RU of immobilized ligand. The specific binding signal obtained from the application as competing antibody was expressed as percentage of the binding signal obtained from the application of the same antibody as saturating (first) antibody, the signal of which was regarded 100% binding.

HBsAg AY serotype [14] = target: T3, HBsAg AY serotype; test: as above
Experimental: as §4

[15] = target: HBsAg clinical mutation G145R (Hepatitis B virus); test: sandwich ELISA, captured mutant HBsAg from culture supernatant;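 further: Anti-HBsAg antibodies tested for binding to mutant HBsAg secreted by stably transfected cell lines, supernatant incubated 1 h on antibody-coated plates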
Experimental: as §2

HBsAg AD serotype [16] = target: T2, HBsAg AD serotype; test: SPR epitope binning; competitor (1st, saturating Ab): CR8087
Experimental: as §4

HBsAg AY serotype [17] = target: T3, HBsAg AY serotype; test: as above
Experimental: as §4

[18] = target: HBsAg clinical mutation T126S (Hepatitis B virus); test: sandwich ELISA, mutant HBsAg from cell supernatant captured on horse polyclonal anti-HBsAg, antibody titrated, absorbance 450 nm; remark: listed apart in the source
[19] = target: HBsAg clinical mutation D144A (Hepatitis B virus); test: as above; remark: listed apart in the source
[20] = target: HBsAg clinical mutation M133L (Hepatitis B virus); test: as above; remark: listed apart in the source
[21] = target: HBsAg clinical mutation T126S (Hepatitis B virus); test: as above; remark: listed apart in the source
[22] = target: HBsAg clinical mutation M133L (Hepatitis B virus); test: as above; remark: listed apart in the source
[23] = target: HBsAg clinical mutation T126S (Hepatitis B virus); test: as above; remark: listed apart in the source
[24] = target: HBsAg clinical mutation M133L (Hepatitis B virus); test: as above; remark: listed apart in the source
[25] = target: HBsAg clinical mutation T126S (Hepatitis B virus); test: as above; remark: listed apart in the source
[26] = target: HBsAg clinical mutation M133L (Hepatitis B virus); test: as above; remark: listed apart in the source
[27] = target: HBsAg clinical mutation T126S (Hepatitis B virus); test: as above; remark: listed apart in the source
[28] = target: HBsAg clinical mutation M133L (Hepatitis B virus); test: as above; remark: listed apart in the source

Binder | IC50 [1] [pM] | IC50 [2] [pM] | IC50 [3] [pM] | Virus neutralization EC50 [7] [pM] | IC50 [8] [pM] | IC50 [9] [pM] | IC50 [10] [pM] | Kd (HBsAg AD serotype [11]) [pM] | Kd (HBsAg AY serotype [12]) [pM] | binding of second antibody (HBsAg AD serotype [13]) | binding of second antibody (HBsAg AY serotype [14]) | IC50 [15] [pM] | binding of second antibody (HBsAg AD serotype [16]) | binding of second antibody (HBsAg AY serotype [17]) | other results
B1 | 23 | 22 | 16 | 56 | 10 | 12 | 13 | 450 | 380 |  |  |  |  |  | EC50 (read off the curve) [4]: ~20 pM; EC50 (read off the curve) [5]: ~20 pM; EC50 (read off the curve) [6]: ~20 pM
B2 | 460 | 280 | 750 | 230 | 42 | 120 | 84 | 130 | 150 | 115 % of its binding as first antibody | 103 % of its binding as first antibody | > 67000 | 216 % of its binding as first antibody | 118 % of its binding as first antibody | EC50 (read off the curve) [18]: ~50 pM; EC50 (read off the curve) [19]: ~100 pM; EC50 (read off the curve) [20]: ~50 pM
B3 | 1100 | 350 | 2000 | 740 | 79 | 7800 | 44 | 910 | 610 | 145 % of its binding as first antibody | 107 % of its binding as first antibody | > 67000 | 282 % of its binding as first antibody | 129 % of its binding as first antibody | EC50 (read off the curve) [21]: ~70 pM; EC50 (read off the curve) [22]: ~60 pM
B4 | 93 | 69 | 170 | 49 | 30 | 270 | 35 | 670 | 750 |  |  |  |  |  | EC50 (read off the curve) [23]: ~30 pM; EC50 (read off the curve) [24]: ~40 pM
B5 | 200 | 50 | 210 | 120 | 110 | 6100 | 150 | 680 | 600 |  |  | 5200 |  |  | EC50 (read off the curve) [25]: ~100 pM; EC50 (read off the curve) [26]: ~200 pM
B6 | 1600 | 170 | 370 | 90 | 88 | 3600 | 85 | 590 | 2400 |  |  | 8600 |  |  | EC50 (read off the curve) [27]: ~100 pM; EC50 (read off the curve) [28]: ~100 pM
